Experimental findings from publication PMC10465699, “Interaction patterns of methoprene-tolerant and germ cell-expressed Drosophila JH receptors suggest significant differences in their functioning” (Frontiers in Molecular Biosciences, 2023) are described below.

T1: Germ cell-expressed C-terminus (GceC, 661-959 aa) (D. melanogaster, UniProt Q9VXW7 661-959)
T1 construct: Germ cell-expressed (Gce) protein, D. melanogaster, UniProt Q9VXW7, residues 661-959 (C-terminal fragment); No step that removes the His tag is described; also called Gce C-terminus
T1 sequence (looked up): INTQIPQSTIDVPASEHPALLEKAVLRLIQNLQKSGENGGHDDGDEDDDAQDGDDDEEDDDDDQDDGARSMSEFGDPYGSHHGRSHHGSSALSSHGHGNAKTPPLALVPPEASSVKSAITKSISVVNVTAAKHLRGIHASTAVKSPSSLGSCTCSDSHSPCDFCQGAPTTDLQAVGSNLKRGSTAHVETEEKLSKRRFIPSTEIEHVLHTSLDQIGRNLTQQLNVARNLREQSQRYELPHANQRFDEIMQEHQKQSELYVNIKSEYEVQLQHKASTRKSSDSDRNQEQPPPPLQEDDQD

B1: Fushi tarazu factor-1 ligand-binding domain (Ftz-F1 LBD, 786-1027 aa) (domain or fragment, D. melanogaster, UniProt P33244 786-1027, looked up)
chain: ALIEPLRVSPMIREFVQSIDDREWQTQLFALLQKQTYNQVEVDLFELMCKVLDQNLFSQVDWARNTVFFKDLKVDDQMKLLQHSWSDMLVLDHLHHRIHNGLPDETQLNNGQVFNLMSLGLLGVPQLGDYFNELQNKLQDLKFDMGDYVCMKFLILLNPSVRGIVNRKTVSEGHDNVQAALLDYTLTCYPSVNDKFRGLVNILPEIHAMAVRGEDHLYTKHCAGSAPTQTLLMEMLHAKRKG
notes: 15N- or 13C,15N-labelled where it was the observed protein in NMR, unlabelled otherwise; also called LBD Ftz-F1; source: E. coli BL21(DE3), purified (Ni-NTA, thrombin digestion, SEC); not shown: His6, N-terminal, cleaved
B2: Methoprene-tolerant C-terminus (MetC, 509-716 aa) (domain or fragment, D. melanogaster, UniProt Q9VYW2 509-716, looked up)
chain: AGRQKVQEMKEKFSTIIKAEMPTQSSSPDLPASQAPQQLERIVLYLIENLQKSVDSAETVGGQGMESLMDDGYSSPANTLTLEELAPSPTPALALVPPAPSSVKSSISKSVSVVNVTAARKFQQEHQKQRERDREQLKERTNSTQGVIRQLSSCLSEAETASCILSPASSLSASEAPDTPDPHSNTSPPPSLHTRPSVLHRTLTSTLR
notes: Methoprene-tolerant (Met) protein, D. melanogaster, UniProt Q9VYW2, residues 509-716 (C-terminal fragment); 15N- or 13C,15N-labelled where it was the observed protein in NMR, unlabelled where it was added to 15N Ftz-F1 LBD; also called Met C-terminus; source: E. coli BL21(DE3), purified (Ni-NTA, on-column SUMO hydrolase digestion, SEC); not shown: His6, N-terminal, cleaved; SUMO, N-terminal, …
B3: Met^PEP, 19-residue peptide of the novel NR-box of MetC (peptide)
peptide: LERIVLYLIENLQKSVDSA
notes: 19-residue peptide representing the novel NR-box in the C-terminus of Met, D. melanogaster, UniProt Q9VYW2; also called MetC^PEP; source: synthetic peptide (PSL GmbH, Heidelberg)

Common to all, as to conditions: both partners purified
The target of assay [1] is T1, Germ cell-expressed C-terminus (GceC, …). Description: NMR titration; 15N-HSQC of 15N Ftz-F1 LBD without and with an equimolar quantity of unlabelled MetC or GceC; 20 mM sodium phosphate pH 6.8, 50 mM NaCl, 1 mM TCEP, 0.5 mM EDTA; 29 C.
Assay [2] addresses B1. Description: NMR titration; 15N-HSQC of 150 uM 15N-MetC with unlabelled Ftz-F1 LBD at 0, 40, 82, 122, 199, 301 and 500 uM (cross-mixing); 20 mM Bis-Tris pH 6.5, 150 mM NaCl, 5 mM bME; 18 C.
For assay [3], the target named is B1. Description: ITC; 1.06 mM Met^PEP titrated into 0.035 mM Ftz-F1 LBD; 25 C; 20 mM HEPES pH 6.8, 150 mM NaCl, 1 mM TCEP; duplicate, global fit to A + B = AB. A general note: ITC needs no label: the signal is the heat of the interaction.

For the molecule B1, the binding result in assay [1] is on record as “binds”.

Regarding B2, the binding result in assay [2] was “binds”.

By Kd is commonly meant the equilibrium constant for the complex coming apart. By stoichiometry N is commonly meant a count of units in the complex or per binding partner. As for B3, in assay [3], the Kd was 9.9 µM, the dH is -1.1 kcal/mol and the “stoichiometry N” value came to 1.
